Here are results for 2 molecules from patent US20240148883A1, “Branched Linkers for Antibody-Drug Conjugates and Methods of Use Thereof” (priority 2021, published 2024).

Like-named read-outs stand apart in the source and are kept apart here.

Data set [1] is classed as physicochemical. The protocol: (§1) Methods: Antibodies (15 mg/mL) bearing one or two aldehyde tags (single or double-tagged constructs) were conjugated to linker-payloads at 1.1 or 1.7 mM, respectively. Reactions proceeded for 72 h at 37° C. in 20 mM sodium citrate, 50 mM NaCl pH 5.5 (20/50 buffer) containing 0.85-2.5% DMA. […] After conjugation, free drug was removed using a 30 kD MWCO 0.5 mL Amicon spin concentrator. Samples were added to the spin concentrator, centrifuged at 15,000×g for 7 min, then diluted with 450 μL 20 mM sodium citrate, 50 mM NaCl pH 5.5 and centrifuged again. The process was repeated 10 times. To determine the DAR of the final product, ADCs were examined by analytical chromatography using HIC (Tosoh #14947) or PLRP-RP (Agilent PL1912-1802 1000 A, 8 um, 50×2.1 mm) columns. HIC analysis used mobile phase A: 1.5 M ammonium sulfate, 25 mM sodium phosphate pH 7.0, and mobile phase B: 25% isopropanol, 18.75 mM sodium phosphate pH 7.0. PLRP analysis used mobile phase A: 0.1% trifluoroacetic acid in water, and mobile phase B: 0.1% trifluoroacetic acid in acetonitrile. Prior to PLRP analysis, sample was denatured with the addition of 50 mM DTT, 4 M guanidine HCl (final concentrations) and heating at 37° C. for 30 min. To determine aggregation, samples were analyzed using analytical size exclusion chromatography (SEC; Tosoh #08541) with a mobile phase of 300 mM NaCl, 25 mM sodium phosphate pH 6.8 with 5% isopropanol.

Data set [2] is described as follows: Aggregation of conjugates by analytical size exclusion chromatography (SEC): % monomeric / % HMW. It is filed as physicochemical. The protocol:
as §1

The mark [3] stands for this setting: conjugated to antibody against Target 1.
[4] abbreviates: conjugated to antibody against Target 2.
The mark [5] stands for this setting: conjugated to antibody against Target 3.
Setting [6] is: conjugated to antibody against Target 4.
Setting [7] is: conjugated to antibody against Target 5.
Setting [8] is: conjugated to antibody against Target 7.
Setting [9] is: conjugated to antibody against Target 8.
The mark [10] stands for this setting: conjugated to antibody against Target 9.
Where [11] appears, read: conjugated to antibody against Target 10.

For the molecule `CC[C@@]1(O)C(=O)OCc2c1cc1n(c2=O)Cc2c-1nc1ccccc1c2CCN(C(=O)OCc1ccc(NC(=O)[C@H](C)NC(=O)[C@@H](NC(=O)CCC(=O)Nc2ccc3c(c2)cc(CN(C)NC)n3CCC(=O)N[C@H](C(=O)N[C@@H](C)C(=O)Nc2ccc(COC(=O)N(CCc3c4c(nc5ccccc35)-c3cc5c(c(=O)n3C4)COC(=O)[C@]5(O)CC)C(C)C)cc2O[C@@H]2O[C@H](C(=O)O)[C@@H](O)[C@H](O)[C@H]2O)C(C)C)C(C)C)c(O[C@@H]2O[C@H](C(=O)O)[C@@H](O)[C@H](O)[C@H]2O)c1)C(C)C` [Compound 18], the DAR in data set [1] (setting [3]) is 6.82; in data set [1] (setting [4]), 6.16; in data set [1] (setting [5]), 4.31; in data set [1] (setting [6]), 6.97; in data set [1] (setting [7]), 5.45; in data set [1] (setting [8]) it was 6.88. Moreover, the DAR is given as 6.1 in data set [1] (setting [9]), 6.84 in data set [1] (setting [10]) and 5.49 in data set [1] (setting [11]). Moreover, the “% HMW (high-molecular weight species)” value is 1.8% in data set [2] (setting [3]); 6.5% in data set [2] (setting [4]); 4.3% in data set [2] (setting [5]); 0.6% in data set [2] (setting [6]); 0.8% in data set [2] (setting [7]); 2.0% in data set [2] (conjugated to antibody against Target 6). Also, the “% HMW (high-molecular weight species)” value is recorded as 1.6% in data set [2] (setting [8]), 3.4% in data set [2] (setting [9]), 1.5% in data set [2] (setting [10]) and 2.7% in data set [2] (setting [11]).

In the case of `CC[C@@]1(O)C(=O)OCc2c1cc1n(c2=O)Cc2c-1nc1ccccc1c2CCN(C(=O)OCc1ccc(NC(=O)[C@H](C)NC(=O)[C@@H](NC(=O)CCOCCOCCOCCOCCNC(=O)CCC(=O)Nc2ccc3c(c2)cc(CN(C)NC)n3CCC(=O)NCCOCCOCCOCCOCCC(=O)N[C@H](C(=O)N[C@@H](C)C(=O)Nc2ccc(COC(=O)N(CCc3c4c(nc5ccccc35)-c3cc5c(c(=O)n3C4)COC(=O)[C@]5(O)CC)C(C)C)cc2O[C@@H]2O[C@H](C(=O)O)[C@@H](O)[C@H](O)[C@H]2O)C(C)C)C(C)C)c(O[C@@H]2O[C@H](C(=O)O)[C@@H](O)[C@H](O)[C@H]2O)c1)C(C)C` [Compound 36], the DAR in data set [1] (setting [4]) was found to be 6.78; in data set [1] (setting [5]), 6.33; in data set [1] (setting [7]) it was 6.88; in data set [1] (setting [9]), 6.55; in data set [1] (setting [10]), 6.32; in data set [1] (setting [11]) it was 6.33. Further, the “% HMW (high-molecular weight species)” value in data set [2] (setting [4]) is reported as 4.1%; in data set [2] (setting [5]), 6.1%; in data set [2] (setting [7]) it was 3.3%; in data set [2] (setting [9]), 3.5%; in data set [2] (setting [10]), 2.2%; in data set [2] (setting [11]), 6.2%.
